# Measurements as given in publication PMC8495455, “Discovery of a transdermally deliverable pentapeptide for activating AdipoR1 to promote hair growth” (EMBO Molecular Medicine, 2021).
# B1: Flag-fused N-terminal-truncated AdipoR1 (residues 89-375) [human] / GST-fused P5 (GLYYF) [human] (parent complex)
# chain 1: EGRWRVIPYDVLPDWLKDNDYLLHGHRPPMPSFRACFKSIFRIHTETGNIWTHLLGFVLFLFLGILTMLRPNMYFMAPLQEKVVFGMFFLGAVLCLSFSWLFHTVYCHSEKVSRTFSKLDYSGIALLIMGSFVPWLYYSFYCSPQPRLIYLSIVCVLGISAIIVAQWDRFATPKHRQTRAGVFLGLGLSGVVPTMHFTIAEGFVKATTVGQMGWFFLMAVMYITGAGLYAARIPERFFPGKFDIWFQSHQIFHVLVVAAAFVHFYGVSNLQEFRYGLEGGCTDDTLL
# chain 2: GLYYF
# B2: GST-fused P5 (GLYYF) [human] / Flag-fused N-terminal-truncated AdipoR1 (residues 89-375) [human] (parent complex)
# chain 1: GLYYF
# chain 2: B1 chain 1
# Variants of: B1
# Experiment: GST pulldown; n = 3 technical replicates/group; parent: 1; read off a plot
row,ratio to parent,Variant
1,~1,chain 1 Y141A
2,~0.77,chain 1 Y137A
3,~0.65,chain 1 Y138A

# Variants of: B1
# Experiment: as above
# Remark: another data set of the same source
row,ratio to parent,Variant
1,~0.73,chain 1 F273A
2,~0.83,chain 1 R274A
3,~0.3,chain 1 F197E
4,~0.57,chain 1 F197A

# Variants of: B1
# Experiment: as above
# Remark: another data set of the same source
row,ratio to parent,Variant
1,~0.45,"chain 1 F197E, chain 1 E201A"
2,~0.72,"chain 1 F197E, chain 1 F273A"
3,~0.75,"chain 1 F197A, chain 1 R274A"

# Variants of: B2
# Experiment: as above
row,ratio to parent,Variant
1,~0.12,chain 1 Y4A
2,~0.13,chain 1 Y4D
